Source: patent US20160347848A1 (AstraZeneca / MedImmune, published 2016)

T1: human OX40 (human, UniProt P43489 29-277)
T1 construct: The form used for the Y182A statement ('native') is not described; also called native human OX40; CD134
T1 sequence: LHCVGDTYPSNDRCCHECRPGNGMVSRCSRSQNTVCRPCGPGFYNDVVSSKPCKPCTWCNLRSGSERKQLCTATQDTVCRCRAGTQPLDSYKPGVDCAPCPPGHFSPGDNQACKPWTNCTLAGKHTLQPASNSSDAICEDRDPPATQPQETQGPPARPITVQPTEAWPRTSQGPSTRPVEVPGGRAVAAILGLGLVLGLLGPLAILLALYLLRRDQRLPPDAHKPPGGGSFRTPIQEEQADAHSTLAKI

T2: mouse OX40 (mouse, UniProt P47741 20-272, limits assumed)
T2 construct: also called native mouse OX40
T2 sequence (looked up): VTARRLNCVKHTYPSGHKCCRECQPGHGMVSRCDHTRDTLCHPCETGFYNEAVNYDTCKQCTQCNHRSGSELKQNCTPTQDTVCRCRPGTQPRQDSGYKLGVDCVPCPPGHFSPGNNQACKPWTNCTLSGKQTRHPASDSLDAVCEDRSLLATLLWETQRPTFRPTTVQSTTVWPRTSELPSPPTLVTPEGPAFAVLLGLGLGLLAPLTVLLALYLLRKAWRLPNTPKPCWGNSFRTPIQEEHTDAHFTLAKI

B1: Y182A mutant mouse OX40L mouse IgG1 fusion protein control (Fc fusion, UniProt P43488 51-198, looked up)
chain: SSSPAKDPPIQRLRGAVTRCEDGQLFISSYKNEYQTMEVQNNSVVIKCDGLYIIYLKGSFFQEVKIDLHFREDHNPISIPMLNDGRRIVFTVVASLAFKDKVYLTVNAPDTLCEHLQINDGELIVVQLTPGACAPEGSYHSTVNQVPL
notes: also called OX40L FP Y182A; mOX40L FP Y182A; not shown: mouse IgG1 Fc domain and any linker or trimerization domain
B2: MEDI4736 (antibody, human IgG1, V domains shown)
VH: EVQLVESGGGLVQPGGSLRLSCAASGFTFSRYWMSWVRQAPGKGLEWVANIKQDGSEKYYVDSVKGRFTISRDNAKNSLYLQMNSLRAEDTAVYYCAREGGWFGELAFDYWGQGTLVTVSS
VL: EIVLTQSPGTLSLSPGERATLSCRASQRVSSSYLAWYQQKPGQAPRLLIYDASSRATGIPDRFSGSGSGTDFTLTISRLEPEDFAVYYCQQYGSLPWTFGQGTKVEIK
notes: also called 2.14H9OPT

Assays:
Test in all cases: not described
human OX40 = biological target: T1, human OX40
mouse OX40 = biological target: T2, mouse OX40
mouse PD-L1 = mouse PD-L1 (mouse, UniProt Q9EP73 19-239, limits assumed)
mouse PD-L1, sequence (Q9EP73 19-239 limits assumed): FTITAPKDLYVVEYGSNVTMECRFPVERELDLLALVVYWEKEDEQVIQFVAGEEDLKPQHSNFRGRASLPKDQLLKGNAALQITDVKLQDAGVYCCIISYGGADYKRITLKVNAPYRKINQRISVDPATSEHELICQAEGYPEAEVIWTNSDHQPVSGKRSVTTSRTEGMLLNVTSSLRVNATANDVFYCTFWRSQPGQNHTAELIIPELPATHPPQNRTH

Binder	binding result (human OX40)	binding result (mouse OX40)	binding result (mouse PD-L1)
B1	no binding	no binding	–
B2	–	–	no binding
